Source: patent US7972815B2, “Method of producing sugar chain using human G4 polypeptide” (Kyowa Hakko Kirin Co., Ltd., priority 1999, dated 2011)
Substitutions are numbered along the chain they refer to.

B1: G4: polypeptide composed of 372 amino acids, SEQ ID NO:2; novel β1,3-N-acetylglucosaminyl transferase (protein, listed as Homo sapiens)
chain: MKYLRHRRPNATLILAIGAFTLLLFSLLVSPPTCKVQEQPPAIPEALAWPTPPTRPAPAPCHANTSMVTHPDFATQPQHVQNFLLYRHCRHFPLLQDVPPSKCAQPVFLLLVIKSSPSNYVRRELLRRTWGRERKVRGLQLRLLFLVGTASNPHEARKVNRLLELEAQTHGDILQWDFHDSFFNLTLKQVLFLQWQETRCANASFVLNGDDDVFAHTDNMVFYLQDHDPGRHLFVGQLIQNVGPIRAFWSKYYVPEVVTQNERYPPYCGGGGFLLSRFTAAALRRAAHVLDIFPIDDVFLGMCLELEGLKPASHSGIRTSGVRAPSQHLSSFDPCFYRDLLLVHRFLPYEMLLMWDALNQPNLTCGNQTQIY
B2: G4-2: polypeptide containing 372 amino acids, SEQ ID NO:3; 328th amino acid Arg instead of His (protein, listed as Homo sapiens)
chain: B1 chain with H328R
B3: FLAG peptide-fused G3 polypeptide: secreted G3, 31st serine to 397th cysteine of SEQ ID NO:1, with immunoglobulin signal sequence and FLAG peptide (protein, listed as Homo sapiens)
chain: SSQEKNGKGEVIIPKEKFWKISTPPEAYWNREQEKLNRQYNPILSMLTNQTGEAGRLSNISHLNYCEPDLRVTSVVTGFNNLPDRFKDFLLYLRCRNYSLLIDQPDKCAKKPFLLLAIKSLTPHFARRQAIRESWGQESNAGNQTVVRVFLLGQTPPEDNHPDLSDMLKFESEKHQDILMWNYRDTFFNLSLKEVLFLRWVSTSCPDTEFVFKGDDDVFVNTHHILNYLNSLSKTKAKDLFIGDVIHNAGPHRDKKLKYYIPEVVYSGLYPPYAGGGGFLYSGHLALRLYHITDQVHLYPIDDVYTGMCLQKLGLVPEKHKGFRTFDIEEKNKNNICSYVDLMLVHSRKPQEMIDIWSQLQSAHLKC
modifications: Ig signal sequence and FLAG peptide
B4: FLAG peptide-fused G4 polypeptide: secreted G4, 38th glutamic acid to 372nd tyrosine of SEQ ID NO:2, with immunoglobulin signal sequence and FLAG peptide (protein, listed as Homo sapiens)
chain: EQPPAIPEALAWPTPPTRPAPAPCHANTSMVTHPDFATQPQHVQNFLLYRHCRHFPLLQDVPPSKCAQPVFLLLVIKSSPSNYVRRELLRRTWGRERKVRGLQLRLLFLVGTASNPHEARKVNRLLELEAQTHGDILQWDFHDSFFNLTLKQVLFLQWQETRCANASFVLNGDDDVFAHTDNMVFYLQDHDPGRHLFVGQLIQNVGPIRAFWSKYYVPEVVTQNERYPPYCGGGGFLLSRFTAAALRRAAHVLDIFPIDDVFLGMCLELEGLKPASHSGIRTSGVRAPSQHLSSFDPCFYRDLLLVHRFLPYEMLLMWDALNQPNLTCGNQTQIY
modifications: Ig signal sequence and FLAG peptide
B5: G3: polypeptide containing 397 amino acids, SEQ ID NO:1; novel β1,3-N-acetylglucosaminyl transferase (protein, listed as Homo sapiens)
chain: MSVGRRRIKLLGILMMANVFIYFIMEVSKSSSQEKNGKGEVIIPKEKFWKISTPPEAYWNREQEKLNRQYNPILSMLTNQTGEAGRLSNISHLNYCEPDLRVTSVVTGFNNLPDRFKDFLLYLRCRNYSLLIDQPDKCAKKPFLLLAIKSLTPHFARRQAIRESWGQESNAGNQTVVRVFLLGQTPPEDNHPDLSDMLKFESEKHQDILMWNYRDTFFNLSLKEVLFLRWVSTSCPDTEFVFKGDDDVFVNTHHILNYLNSLSKTKAKDLFIGDVIHNAGPHRDKKLKYYIPEVVYSGLYPPYAGGGGFLYSGHLALRLYHITDQVHLYPIDDVYTGMCLQKLGLVPEKHKGFRTFDIEEKNKNNICSYVDLMLVHSRKPQEMIDIWSQLQSAHLKC

What was measured:
[1] = β1,3-N-acetylglucosaminyl transferase activity in cell extract of stable transformants (Example 8); format: biochemical, human; details: cell extract of Namalwa KJM-1 transformed by expression plasmid; 50 μM pyridylaminated LNnT; 37° C., 16 hours; control plasmid cells 1.8%
Method: The β1,3-N-acetylglucosaminyl transferase activity was examined by using a cell extract of stable transformants which were transformed by a plasmid capable of expressing G3, G4, G4-2 or G7 polypeptide obtained in Example 7.
The transformed cells (about 2×10^7) were transferred into a microtube (1.5 ml: manufactured by Eppendorf) and centrifuged (550×g for 7 minutes) to collect the cells. The cells were washed with 0.9 ml of PBS, the washed cells were suspended in a solution […] composed of 20 mmol/l HEPES (pH 7.2) and 1% Triton X-100 and then the cells were disrupted by a sonicator (Bioruptor; manufactured by Cosmo Bio). After standing at 4° C. for 1 hour, a supernatant was obtained by centrifugation (550×g for 7 minutes). The supernatant was used as an enzyme sample. The β1,3-N-acetylglucosaminyl transferase activity was measured by using this enzyme sample.
Preparation of a pyridylaminated sugar chain substrates and activity measurement were carried out in accordance with known methods [Japanese Published Unexamined Patent Application No. 181757/94, Japanese Published Unexamined Patent Application No. 823021/94, J. Biol. Chem., 269, 14730 (1994), J. Biol. Chem., 267, 2994 (1992)].
(§1) Specifically, the reaction was carried out at 37° C. for 16 hours in 30 μl of an assay solution [200 mmol/l of MOPS (pH 7.5), 50 mmol/l of UDP-GlcNAc (SIGMA), 20 mmol/l of MnCl2, 0.3% Triton X-100, 50 μM of a pyridylaminated sugar chain substrate and 10 μl of the above cell lysate], and then products were detected by a high performance liquid chromatography (HPLC).
As a substrate, lacto-N-neotetraose (Galβ1-4GlcNAcβ1-3Galβ1-4Glc; hereinafter referred to as “LNnT”) fluorescence-labeled with aminopyridine was used. […]
(§2) Products were detected by using a fluorescence spectrum photometer FP-920 (JASCO Corporation) (excitation wavelength 320 nm, radiation wavelength 400 nm). […]
(§3) The amount of products was measured by using pyridylaminated lactose as a standard and comparing their fluorescence intensity.

[2] = β1,3-N-acetylglucosaminyl transferase activity of secreted FLAG peptide-fused polypeptides (method of Example 8); format: biochemical, human
Method: as §1
As a substrate, lacto-N-neotetraose (Galβ1-4GlcNAcβ1-3Galβ1-4Glc; hereinafter referred to as “LNnT”) fluorescence-labeled with aminopyridine was used.
After carrying out the reaction by using the assay solution with or without UDP-GlcNAc (sugar donor), HPLC was carried out and peaks appeared only in the assay solution containing UDP-GlcNAc were defined as products.
The assay solution after completion of the reaction was treated at 100° C. for 5 minutes and then centrifuged at 10,000×g for 5 minutes, and a portion (5 μl) of the thus obtained supernatant was applied to HPLC.
The HPLC was carried out by using TSK-gel ODS-80Ts column (4.6×300 mm; Tosoh); 0.02 M ammonium acetate buffer (pH 4.0) was used as an eluate at elution temperature 50° C. and flow rate 0.5 ml/min.
as §2, §3
A β1,3-N-acetylglucosaminyl transferase activity of FLAG peptide-fused G4 polypeptide expressed as a secreted form in Namalwa KJM-1 cell was measured by using 15 μl of the eluate prepared in the above (4). […] As a result, a β1,3-N-acetylglucosaminyl transferase activity was detected when the eluate derived from the culture supernatant of pAMoF2-G4-introduced Namalwa KJM-1 cell was used. […] On the other hand, the activity was not detected when the eluate derived from the culture supernatant of Namalwa KJM-1 cell transformed by the vector pAMoF2 was used.
A β1,3-N-acetylglucosaminyl transferase activity of FLAG peptide-fused G4 polypeptide produced as a secreted form in the insect cell was measured using 15 μl of the eluate prepared in the above (3). […] As a result, a β1,3-N-acetylglucosaminyl transferase activity was detected when the eluate derived from the culture supernatant of the insect cell transformed by pVL1393-F2G4 was used.
A β1,3-N-acetylglucosaminyl transferase activity was also detected when the resin before elution was used. […]
A β1,3-N-acetylglucosaminyl transferase activity of FLAG peptide-fused G3 polypeptide was measured by using 15 μl of the purified sample prepared in the above (3). […] As a result, a β1,3-N-acetylglucosaminyl transferase activity was detected. […]

[3] = 15 μl eluate/purified sample from insect cell (Sf21) culture supernatant

Row | Molecule | ratio of a substrate (LNnT) converted into a product (GlcNAcβ1-3Galβ1-4GlcNAcβ1-3Galβ1-4Glc) [1] | ratio of the substrate converted into the product [2, 3] | ratio of the substrate converted into the product ([2]; 15 μl eluate from culture supernatant of pAMoF2-G4-introduced Namalwa KJM-1 cell) | ratio of the substrate converted into the product ([2]; insect cell product, resin before elution (enzyme adsorbed to Anti-FLAG M1 Affinity Gel))
1 | B1 | 2.8% |  |  | 
2 | B2 | 2.8% |  |  | 
3 | B3 |  | 100% |  | 
4 | B4 |  | 12.1% | 0.51% | 21.0%
5 | B5 | 2.7% |  |  | 
